B1: intrabody 5 (IB5) (scFv, V domains shown)
VH: QVQLVETGPGLVKPSETLSLRCTVSGGSFDNYYWNWIRQPPGKGLEYIGYVFPSTGATNYNPSLGSRVTISLDTSKNQFSLTLTSVTTADTAIYYCVRSGHDLWTGSTWFDPWGQWTTVTVSS
VL: EIVLTQSPGTLSLSPGERATLSCRASQSVSSSYLAWYQQKPGQAPRLLIYGASSRATGIPDRFSGSGSGTDFTLTISRLEPEDIAVYYCQQRSNWPRTFGQGTKVEIK
notes: human VH and VL joined by a flexible peptide linker, from a naive human combinatorial scFv library; Expressed without a secretion leader from an EF1alpha lentiviral vector; The tandem Strep-tag was added for the target immunoprecipitation construct; also called clone 5; scFv 5; source: HEK293T, infected with intrabody lentivirus, in lysate; not shown: FLAG, C-terminal, kept
B2: recombinant monovalent scFv 5 (corresponding to IB5) (scFv, V domains shown)
VH: B1 VH
VL: B1 VL
notes: as the scFv of m1; also called purified scFv 5; recombinant scFv; source: E. coli Rosetta (DE3)pLys, pET28a, purified (Ni-NTA)
B3: recombinant PKM2 (K422R) (enzyme)
chain: not shown
notes: human pyruvate kinase isoform M2 with K422R; also called stably tetrameric PKM2 mutant; source: recombinant; WT and mutant PKM2 proteins from E. coli BL21 (DE3), purified (Ni-NTA)
B4: recombinant PKM2 (K270M) (enzyme)
chain: not shown
notes: human pyruvate kinase isoform M2 with K270M, plasmid pET28a-His-hPKM2 (K270M); source: E. coli BL21 (DE3), purified (Ni-NTA)

What was measured:
[1] = target: T1, pyruvate kinase M2 (PKM2), endogenous in 293T cells (Homo sapiens (Human)., UniProt P14618); assay: affinity purification with mass spectrometry; lysate (1% Triton X-100) of 293T cells expressing FLAG/Strep-tagged intrabody; anti-FLAG M2 beads 2 h at 4°C, elution with 3X FLAG peptide, then Strep-Tactin; SDS-PAGE with silver stain, bands identified by MALDI TOF/TOF; conditions: partners not purified
T1 construct: pyruvate kinase isoform M2 (PKM2), product of the PKM gene with exon 10; also called 55-kD protein; source: endogenous, HEK293T lysate

[2] = target: T2, recombinant human PKM2, wild type (human, UniProt P14618); assay: native gel or EMSA; blue native gel electrophoresis; recombinant scFv 5 mixed with recombinant PKM2 (WT or mutant) or PKM1 at various molar ratios, reaction volume 20 μl; conditions: both partners purified
T2 construct: Runs as dimer and tetramer on blue native gels; also called WT PKM2; His-hPKM2; source: E. coli BL21 (DE3), purified (Ni-NTA)

[3] = target: the molecule itself; assay: native gel or EMSA; blue native gel electrophoresis of recombinant PKM2 (WT or mutant) or PKM1, alone or with FBP and/or scFv 5; resolves dimer and tetramer forms

T1 sequence (P14618 whole entry, canonical isoform): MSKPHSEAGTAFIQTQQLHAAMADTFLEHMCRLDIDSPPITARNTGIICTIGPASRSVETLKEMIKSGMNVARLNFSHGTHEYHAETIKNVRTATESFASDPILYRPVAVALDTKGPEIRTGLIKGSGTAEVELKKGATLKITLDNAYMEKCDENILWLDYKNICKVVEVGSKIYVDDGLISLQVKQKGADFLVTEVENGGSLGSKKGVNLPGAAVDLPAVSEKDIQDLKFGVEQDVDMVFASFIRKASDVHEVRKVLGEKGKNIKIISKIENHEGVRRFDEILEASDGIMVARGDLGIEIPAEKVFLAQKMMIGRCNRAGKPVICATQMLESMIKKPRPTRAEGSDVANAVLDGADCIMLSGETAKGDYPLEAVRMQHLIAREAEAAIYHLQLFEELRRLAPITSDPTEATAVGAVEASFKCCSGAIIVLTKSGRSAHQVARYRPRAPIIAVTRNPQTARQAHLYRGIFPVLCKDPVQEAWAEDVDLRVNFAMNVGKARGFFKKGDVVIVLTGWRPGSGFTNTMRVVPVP
T2 sequence (P14618 whole entry): as the sequence (P14618 whole entry, canonical isoform) above

| Binder | stoichiometry N [3] | further results |
| --- | --- | --- |
| B1 | – | binding result [1]: binds |
| B2 | – | binding result [2]: binds |
| B3 | 4 | – |
| B4 | 2 | – |

— paper PMC6586363, “Phenotypic selection with an intrabody library reveals an anti-apoptotic function of PKM2 requiring Mitofusin-1” (PLoS Biology, 2019)
